The values below come from article PMC5568661.

Where two headings read alike, the source gives them in different places.

Experiment in all cases: NMR 15N-HSQC titration
The target of data set [1] is T1, Ets-1 ΔN301 (murine, UniProt P27577 301-440).
T1 sequence: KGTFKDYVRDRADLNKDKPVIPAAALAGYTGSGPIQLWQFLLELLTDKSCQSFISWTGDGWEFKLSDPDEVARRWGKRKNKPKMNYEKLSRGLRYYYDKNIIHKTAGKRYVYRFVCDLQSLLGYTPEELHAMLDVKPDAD

Data set [2] addresses T1, Ets-1 ΔN301. This is another data set of the same source.
In the next data set the target is T2, Ets-1 ΔN279 (murine, UniProt P27577 279-440).
T2 sequence: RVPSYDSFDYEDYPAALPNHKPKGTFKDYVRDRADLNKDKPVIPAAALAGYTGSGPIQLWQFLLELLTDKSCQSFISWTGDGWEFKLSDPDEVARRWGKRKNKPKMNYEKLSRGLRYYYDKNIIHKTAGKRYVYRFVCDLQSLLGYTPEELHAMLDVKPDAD

In data set [3] the target is T1, Ets-1 ΔN301. This is another data set of the same source.
Data set [4] addresses T1, Ets-1 ΔN301. This is another data set of the same source.

B1: DNANSP9 (dsDNA)
DNA 1: GCACTCTAG
DNA 2: CTAGAGTGC
For B1, the Kd with Ets-1 ΔN301 [1] was ~10 µM.

B2: DNANSP15 (dsDNA)
DNA 1: GATGCAGTGTAGTCG
DNA 2: CGACTACACTGCATC
B2: in the data set with Ets-1 ΔN301 [2], the dissociation constant (Kd) is < 10 µM.

B3: DNASP14 (dsDNA)
DNA 1: CCAAGCCGGAAGTG
DNA 2: CACTTCCGGCTTGG
In the case of B3, in the data set with Ets-1 ΔN279, the binding result was “binds”.

B4: DNASP12 (dsDNA)
DNA 1: CAGCCGGAAGTG
DNA 2: CACTTCCGGCTG
For the molecule B4, the binding result with Ets-1 ΔN301 [3] is listed as “binds”.

B5: DNASP9 (dsDNA)
DNA 1: GCCGGAAGT
DNA 2: ACTTCCGGC
B5: the binding result with Ets-1 ΔN301 [4] was “binds”.
